# Laboratory results: publication PMC2820766 (The Journal of Biological Chemistry, 2009)
# Molecular target: the molecule itself
# Experiment: SEC
row,Protein,stoichiometry N
1,"MscSΔW L105W (W16Y/W240F/W251F/L105W), small mechanosensitive channel MscS-H6 (natural protein) MEDLNVVDSINGAGSYLVANQALLLSYAVNIVAALAIIIVGLIIARMISNAVNRLMISRKIDATVADFLSALVRYGIIAFTLIAALGRVGVQTASVIAVLGAAGWAVGLALQGSLSNLAAGVLLVMFRPFRAGEYVDLGGVAGTVLSVQIFSTTMRTADGKIIVIPNGKIIAGNIINFSREPVRRNEFIIGVAYDSDIDQVKQILTNIIQSEDRILKDREMTVRLNELGASSINFVVRVFSNSGDLQNVYFDVLERIKREFDAAGISFPYPQMDVNFKRVKEDKAA",7
2,"MscSΔW L105W/A106V (W16Y/W240F/W251F/L105W/A106V), small mechanosensitive channel MscS-H6 (natural protein) MEDLNVVDSINGAGSYLVANQALLLSYAVNIVAALAIIIVGLIIARMISNAVNRLMISRKIDATVADFLSALVRYGIIAFTLIAALGRVGVQTASVIAVLGAAGWVVGLALQGSLSNLAAGVLLVMFRPFRAGEYVDLGGVAGTVLSVQIFSTTMRTADGKIIVIPNGKIIAGNIINFSREPVRRNEFIIGVAYDSDIDQVKQILTNIIQSEDRILKDREMTVRLNELGASSINFVVRVFSNSGDLQNVYFDVLERIKREFDAAGISFPYPQMDVNFKRVKEDKAA",7
